Experimental findings from the Human Domainome abundance scans (Beltran et al. 2025) are described below.

± gives the uncertainty stated by the source.

The data set is described as follows: abundance fitness (aPCA) (normalised: wild type 0, dead -1); higher = more abundant; growth selection in yeast, the domain comes from the species named. The settings on record: Homo sapiens.
In turn, “DnaJ homolog subfamily B member 1 G40C, P25685” gave an abundance fitness of -0.113 ± 0.16.

“DnaJ homolog subfamily B member 1 G40D, P25685” came in with an abundance fitness of -0.301 ± 0.078.

Turning to “DnaJ homolog subfamily B member 1 G40E, P25685”, the abundance fitness is -0.194 ± 0.1.

As for “DnaJ homolog subfamily B member 1 G40F, P25685”, the abundance fitness is -0.049 ± 0.13.

“DnaJ homolog subfamily B member 1 G40H, P25685” returned an abundance fitness of -0.131 ± 0.15.

With “DnaJ homolog subfamily B member 1 G40I, P25685”, the abundance fitness is -0.026 ± 0.13.

For the substance “DnaJ homolog subfamily B member 1 G40K, P25685”, the abundance fitness was found to be 0.005 ± 0.15.

As to “DnaJ homolog subfamily B member 1 G40L, P25685”, the abundance fitness is -0.188 ± 0.1.

As for “DnaJ homolog subfamily B member 1 G40M, P25685”, the abundance fitness was -0.14 ± 0.1.

Consider “DnaJ homolog subfamily B member 1 G40N, P25685”, for which the abundance fitness is -0.173 ± 0.18.

On to “DnaJ homolog subfamily B member 1 G40P, P25685”, for which the abundance fitness was -0.248 ± 0.12.

With “DnaJ homolog subfamily B member 1 G40Q, P25685”, the abundance fitness is -0.103 ± 0.14.

Consider “DnaJ homolog subfamily B member 1 G40R, P25685”, for which the abundance fitness was -0.041 ± 0.088.

Regarding “DnaJ homolog subfamily B member 1 G40S, P25685”, the abundance fitness was -0.195 ± 0.086.

Consider “DnaJ homolog subfamily B member 1 G40V, P25685”, for which the abundance fitness is -0.133 ± 0.079.

“DnaJ homolog subfamily B member 1 G40Y, P25685” gave an abundance fitness of -0.182 ± 0.15.

For the substance “DnaJ homolog subfamily B member 1 H32A, P25685”, the abundance fitness is -0.154 ± 0.16.

“DnaJ homolog subfamily B member 1 H32C, P25685” came in with an abundance fitness of -0.106 ± 0.14.

In turn, “DnaJ homolog subfamily B member 1 H32D, P25685” came in with an abundance fitness of -0.241 ± 0.23.

In turn, “DnaJ homolog subfamily B member 1 H32E, P25685” returned an abundance fitness of 0.035 ± 0.091.

“DnaJ homolog subfamily B member 1 H32F, P25685” had an abundance fitness of -0.139 ± 0.16.

With “DnaJ homolog subfamily B member 1 H32G, P25685”, the abundance fitness is -0.007 ± 0.072.

In the case of “DnaJ homolog subfamily B member 1 H32I, P25685”, the abundance fitness is -0.246 ± 0.12.

“DnaJ homolog subfamily B member 1 H32K, P25685”: the abundance fitness is -0.777 ± 0.16.

In turn, “DnaJ homolog subfamily B member 1 H32L, P25685” returned an abundance fitness of -0.025 ± 0.082.

“DnaJ homolog subfamily B member 1 H32M, P25685” showed an abundance fitness of 0.014 ± 0.089.

“DnaJ homolog subfamily B member 1 H32N, P25685” showed an abundance fitness of 0.017 ± 0.15.

Regarding “DnaJ homolog subfamily B member 1 H32P, P25685”, the abundance fitness was -0.199 ± 0.14.

On to “DnaJ homolog subfamily B member 1 H32R, P25685”, for which the abundance fitness is -0.057 ± 0.061.

Take “DnaJ homolog subfamily B member 1 H32S, P25685”: the abundance fitness was 0.05 ± 0.073.

For the substance “DnaJ homolog subfamily B member 1 H32T, P25685”, the abundance fitness is -0.048 ± 0.072.

“DnaJ homolog subfamily B member 1 H32W, P25685”: the abundance fitness was -0.155 ± 0.075.

Substance “DnaJ homolog subfamily B member 1 H32Y, P25685” displayed an abundance fitness of -0.192 ± 0.21.

With “DnaJ homolog subfamily B member 1 I20A, P25685”, the abundance fitness is -0.63 ± 0.092.

“DnaJ homolog subfamily B member 1 I20C, P25685” showed an abundance fitness of -0.431 ± 0.079.

In the case of “DnaJ homolog subfamily B member 1 I20D, P25685”, the abundance fitness is -0.766 ± 0.17.

The substance “DnaJ homolog subfamily B member 1 I20E, P25685” came in with an abundance fitness of -0.956 ± 0.15.

Take “DnaJ homolog subfamily B member 1 I20F, P25685”: the abundance fitness was -0.708 ± 0.1.

“DnaJ homolog subfamily B member 1 I20G, P25685” returned an abundance fitness of -0.9 ± 0.071.

“DnaJ homolog subfamily B member 1 I20H, P25685” had an abundance fitness of -0.948 ± 0.13.

Regarding “DnaJ homolog subfamily B member 1 I20K, P25685”, the abundance fitness is -0.86 ± 0.087.

Substance “DnaJ homolog subfamily B member 1 I20L, P25685” showed an abundance fitness of -0.143 ± 0.076.

In turn, “DnaJ homolog subfamily B member 1 I20M, P25685” displayed an abundance fitness of -0.575 ± 0.12.

“DnaJ homolog subfamily B member 1 I20N, P25685” showed an abundance fitness of -1.02 ± 0.11.

For the substance “DnaJ homolog subfamily B member 1 I20P, P25685”, the abundance fitness was -1.26 ± 0.17.

“DnaJ homolog subfamily B member 1 I20Q, P25685” registered an abundance fitness of -0.759 ± 0.13.

“DnaJ homolog subfamily B member 1 I20R, P25685” gave an abundance fitness of -0.832 ± 0.06.

In turn, “DnaJ homolog subfamily B member 1 I20S, P25685” yielded an abundance fitness of -0.782 ± 0.061.

Substance “DnaJ homolog subfamily B member 1 I20W, P25685” registered an abundance fitness of -1.42 ± 0.12.

“DnaJ homolog subfamily B member 1 I48A, P25685”: the abundance fitness was -0.108 ± 0.079.

Substance “DnaJ homolog subfamily B member 1 I48C, P25685” gave an abundance fitness of -0.073 ± 0.11.

On to “DnaJ homolog subfamily B member 1 I48D, P25685”, for which the abundance fitness was -0.667 ± 0.12.

Consider “DnaJ homolog subfamily B member 1 I48E, P25685”, for which the abundance fitness is -0.697 ± 0.095.

For the substance “DnaJ homolog subfamily B member 1 I48F, P25685”, the abundance fitness is -0.41 ± 0.13.

In the case of “DnaJ homolog subfamily B member 1 I48G, P25685”, the abundance fitness is -0.615 ± 0.065.

“DnaJ homolog subfamily B member 1 I48H, P25685” showed an abundance fitness of -0.561 ± 0.12.

Take “DnaJ homolog subfamily B member 1 I48K, P25685”: the abundance fitness is -0.329 ± 0.2.

Substance “DnaJ homolog subfamily B member 1 I48L, P25685” gave an abundance fitness of -0.089 ± 0.072.

As to “DnaJ homolog subfamily B member 1 I48M, P25685”, the abundance fitness was -0.111 ± 0.099.

In the case of “DnaJ homolog subfamily B member 1 I48P, P25685”, the abundance fitness is -0.561 ± 0.1.

Take “DnaJ homolog subfamily B member 1 I48Q, P25685”: the abundance fitness was -0.422 ± 0.12.

“DnaJ homolog subfamily B member 1 I48R, P25685” returned an abundance fitness of -0.74 ± 0.075.

For the substance “DnaJ homolog subfamily B member 1 I48S, P25685”, the abundance fitness was -0.387 ± 0.074.

“DnaJ homolog subfamily B member 1 I48V, P25685” displayed an abundance fitness of -0.267 ± 0.089.

For “DnaJ homolog subfamily B member 1 I48W, P25685”, the abundance fitness is -1 ± 0.11.

“DnaJ homolog subfamily B member 1 I48Y, P25685”: the abundance fitness is -0.386 ± 0.2.

The substance “DnaJ homolog subfamily B member 1 I63A, P25685” gave an abundance fitness of 0.237 ± 0.097.

In the case of “DnaJ homolog subfamily B member 1 I63C, P25685”, the abundance fitness was -0.083 ± 0.1.

“DnaJ homolog subfamily B member 1 I63D, P25685” showed an abundance fitness of -0.014 ± 0.21.

The substance “DnaJ homolog subfamily B member 1 I63E, P25685” had an abundance fitness of 0.092 ± 0.1.

As to “DnaJ homolog subfamily B member 1 I63F, P25685”, the abundance fitness is -0.212 ± 0.26.

The substance “DnaJ homolog subfamily B member 1 I63G, P25685” showed an abundance fitness of -0.003 ± 0.089.

Take “DnaJ homolog subfamily B member 1 I63H, P25685”: the abundance fitness is -0.311 ± 0.33.

“DnaJ homolog subfamily B member 1 I63K, P25685” showed an abundance fitness of -0.019 ± 0.13.

“DnaJ homolog subfamily B member 1 I63L, P25685” yielded an abundance fitness of -0.097 ± 0.082.

“DnaJ homolog subfamily B member 1 I63M, P25685” yielded an abundance fitness of -0.087 ± 0.085.

“DnaJ homolog subfamily B member 1 I63N, P25685” had an abundance fitness of -0.012 ± 0.11.

The substance “DnaJ homolog subfamily B member 1 I63P, P25685” registered an abundance fitness of 0.08 ± 0.11.

In turn, “DnaJ homolog subfamily B member 1 I63Q, P25685” showed an abundance fitness of 0.098 ± 0.074.

For “DnaJ homolog subfamily B member 1 I63R, P25685”, the abundance fitness is 0.044 ± 0.074.

“DnaJ homolog subfamily B member 1 I63S, P25685”: the abundance fitness is 0.108 ± 0.068.

“DnaJ homolog subfamily B member 1 I63T, P25685” registered an abundance fitness of 0.588 ± 0.081.

With “DnaJ homolog subfamily B member 1 I63V, P25685”, the abundance fitness was 0.016 ± 0.065.

As for “DnaJ homolog subfamily B member 1 I63W, P25685”, the abundance fitness was -0.277 ± 0.12.

The substance “DnaJ homolog subfamily B member 1 I63Y, P25685” came in with an abundance fitness of -0.236 ± 0.12.

In turn, “DnaJ homolog subfamily B member 1 K21A, P25685” returned an abundance fitness of -0.071 ± 0.072.

As to “DnaJ homolog subfamily B member 1 K21C, P25685”, the abundance fitness was -0.089 ± 0.071.

In turn, “DnaJ homolog subfamily B member 1 K21D, P25685” showed an abundance fitness of -0.25 ± 0.12.

With “DnaJ homolog subfamily B member 1 K21E, P25685”, the abundance fitness is -0.182 ± 0.1.

On to “DnaJ homolog subfamily B member 1 K21H, P25685”, for which the abundance fitness was 0.006 ± 0.085.

Substance “DnaJ homolog subfamily B member 1 K21L, P25685” gave an abundance fitness of -0.029 ± 0.051.
